The data set in a line: label from the status in PepcDB records.

In the case of “MNGDRTGLGSTRLGRIAIAGGKQLLGKINSARKNFPMKIFLLLLGFYTANALATILGQTGDWDVLVAGIVVAAIEGIGMLMYKKPSSSMFSGKLQSFVVFMNFWKAGVCLGLFVDAFKLGS”, the protein production result was “failed”. “MNGRVDYLVTEEEINLTRGPSGLGFNIVGGTDQQYVSNDSGIYVSRIKENGAAALDGRLQEGDKILSVNGQDLKNLLHQDAVDLFRNAGYAVSLRVQHRLQVQNGPI”: the protein production result was “not failed”.

“MNGTELRETLEDLIKEVVQASREALDTQGELNERNEAALRTLEAQWRQRLIEELHEQGSLRVVLCRTDLLVPGSGATGTTTTNRTDPLRYVYETLRQRDPRERRRSLPPERSSQSSELEDTGTDSGEALSSGDDDDEISQVAGQPEPETANYVLSQYERVLAPSTNKQRIWRVFLRDAMVHINGQDLLLNQLQCQFDW”: the protein production entry is given as “not failed”. With “MNGVFAINFFVMALMLALYISESFGAIILLFFYKDGSKKVTPYVVPIWELTGTFIAFWVVTSDFAYPSILVPAAFIYAVPLLILLIAFIGRNAFIIFGEFIKKGFIDEKAMYKIFSIFECIFCLVFVIFASSVVTGGGVILSKLAFNVGKWATTPGDVLFVVGTVIFIFGLSFIFYGLEKYKLHSIVLTYIGIILAVVAFVQIHLSISTVPLSPVLAIPILIGILAPILFYIDSTRKIVENKIFFLALLVISVYPFYSLVYPKFFGGTLPVSAFLTNSPMATAYFYITLGGGILLIAMLAYMVYVANGFNKMVAEKA”, the protein production entry was “failed”. Consider “MNHASDLILIGSTLLLALAAHAVGQKVHVPRVTLLLLLGALAGPDLLDLLPDNADQSFSLITQLTLAMVGFLLGERMSARDLRQGKEALIVSLAVTLLTAAAVILAVWAVTGNLPAALLLGGIATATAPAATLDVLREAGANGPLTRLVFQVVAIDDAWGAILFSVLLVAAGLLLGNGDLSGPTAMLHGLWEVAGSVLLGMVLGFPMAWLTGRLRPGEPMLLESAGFVFVAAGLASWFGLSYLLTCMTLGIVVANRARHHVRPFRSIEGISEPFLALFFFMAGYQLDWLALPTLGALGLAYVLARIGGRLAGGYLGGLLAGSAPETRQRIGACLMPQAGVALGLALVATERLPELGYILPLVIGATVVFELIGPPMTLLQLRKAGETGQGYQEEPDE”, for which the protein production result is listed as “failed”. In the case of “MNHPIVGLIAAVVLAIGVVELHLWLPAIQSVSPLLISIGVGILVSHILPARCKEPLAPGLNIAKGSILRVAIVLYGFNITLQALSQVGIYGLFSAVTMVSVILFVGIWAGTKLFKLDKEQAILVAVGSAICGAAAVAAMEPIIKAKPHKVITAISTVVVFGTLSMLLMPLVFQFFDINEAQYGLWVGVSVHEVAQVVVAGDSVSSNAAHMAVLEKMLRVVLLVPVLLTFAVWMRQKSKGSDKESGDNKVSVPWFAFLFIGAIIINSLNWIPDDVTTAFTAAATYLLCIAMTALGMLTHISVIKQGGAKAFALAALLFVSLFITGYLLAQFA”, the protein production result is recorded as “failed”. Take “MNHPYRWVIVAAGGVLGCVAAGAMFSLPVLIRPMSQDTGWSVTGISTAMTIGFLAMAAASMVWGNLSDRFGPRPVVLTGSVVLAASLALGSRATSLIEFQLLFGALVGAATAAVFAPMMACVTGWFDTGRGLAVSLVSAGMGMAPLTMAPLAAWLVTIHDWRGAMLIISAITAALMIPAALLVRRPPALEPGGAEGAWADAQDDMTLRQAVRSPQFVTLLLANFFCCATHSGPIFHTVSYAVTCGIPMIAATSIYSVEGLSGMFGRLGFGLAGDRFGAQRVLVIGLLAQAFGVLAYAFVGGLGGFYAVAVAVGFIYAGTMPLYAVIIRENFPLRMMGTIVGGTAMAGSLGMSTGPVLGGLIYDAYDSYAPMYVASCGMGLAAMLILATFRPFPQRRGELAVA”: the protein production result is “failed”. Under “MNHRHYGNFMAALSFVIWGLLPVYYRFLHNAAMDELLAWRIIGSVPVGILIVYAVTRHWPNWSQVWRDKKSLWYTFVASSLMCISWSAFTWALTHHRVIDASLGFFIGPLVSVALGVFVLGDKLSKGQLIAILLATCGVLYQVFQYGQLPFVALTMGLFFALYGLYKKKINYDWSTTLFIEALVLAPFALGYLLFKQWTTGELASSVDTTTLLLYFGSAPITILPLIFYSIAIRITNLSTVGLMQYIEPSLQFILAVVFFGELFDDVKAVTFAFIWVGLLLTIFEGVAKGIKRKKLANHSV” stands “failed”; under “MNHSNLTILSVCSNFVIVVLKLIVGFFTGSVAVISEGIHSSMDLFASIITFFSIRISNQPADEDHPYGHGKAENIAGTIETLLIFVAGIWIIVESVNKLVNPHEIRFPALGIMVMLFGAIVNIIVSRIIKKAADEANSVAMKSNALHLYTDVFTSLGIALSLFLVYITGWLWLDPVIAILTAFYIMYEAYKLLKESFPPLMDKRLSADEEEAIKQIILAHKTRFIEFHDFRSRRAGAEEYIDFHLVVSSSMTIESAHSLCDEIEAEIMNFYAKAEVLIHLEPEEERVLTRI”, “failed”. As for “MNIELFIQRAEALHKQLADLYQTASVLPWIPPDLLPQAFKELYSNSKLVQLAAEELYHQNEELIQTRSLLEAERQHYHDLFEFAPDGYLVTNAEGIIQEANLTATKLFNAPKHILVDRSVINFIRLEERESFHCELNQLFQTDKAKKLIVRLHQFHGESFDALLTISVVRSQNGKIKSLHWLLSHINENQQQSLGLVNHENYLSQNRPVYVYAKGENIPLNPLVIWYVRQGLVKLSTFCETGEEVLTGLAKTHMVFGSSMTKLPIYQATALADVELVSINFAEIAVSQMLSHILLPKINQQLQQKESFLVITGRRKIEDRLYHLLQFLKQEIGEPVGEKTRLSVRFTHEDIASACCTTRVTITRLMGKLQQQGLISFDSKKHMIINKRLEDRE”, the protein production result is “failed”. Regarding “MNIEQQLYDVVKQLIEQRYPNDWGGAAAIRVEDGTIYTSVAPDVINASTELCMETGAILEAHKFQKKVTHSICLARENEHSELKVLSPCGVCQERLFYWGPEVQCAITNAKQDIIFKPLKELQPYHWTEAYHDEMVKEWSTR”, the protein production entry is “not failed”. For the sequence “MNIFEQTPPNRRRYGLAAFIGLIAGVVSAFVKWGAEVPLPPRSPVDMFNAACGPESLIRAAGQIDCSRNFLNPPYIFLRDWLGLTDPNAAVYTFAGHVFNWVGVTHIIFSIVFAVGYCVVAEVFPKIKLWQGLLAGALAQLFVHMISFPLMGLTPPLFDLPWYENVSEIFGHLVWFWSIEIIRRDLRNRITHEPDPEIPLGSNR”, the protein production entry is given as “failed”.

For “MNIKREQVFVWSGKIRLFHWINVIAILLLIVIGVVILNGKLFGVSTDGKILLKTIHVIVGYVFATNLIFRLIIAFIGKTYEKWGKMLPFNKGFTEELIEFTQQKRLTYKGHNPAGKLMVLALLSFMSVQMISGLVIAGTDIYYPPFGNYFIQSIAIDKDNLAVIKPYSKENIDEASYQAMRDFRKPFITAHVYSFYCLLFLIPLHIIGVIVAERRERSAIVSAMFNGYKYLPKDEPTDH”, the protein production result is given as “failed”. As to “MNILKMKKTGIFLGGVLFGTVGVKILSSDCVKKTCTRATAGALKVKDSVLETTTKIQENVEDILAEAKEINEQEDLSTSKVNVVQDTLKCEQEVLKTETIKTVEDTNSNSIKCEEIKDNVIEEKNSTCTTE”, the protein production entry is “failed”. Regarding “MNILKRKTPQNIRFGEQKPKYYFHIRAFAVLLGVFFLLGVYFNWQSILEKMDDKPISAFALVGQNTFTTADDIKESLLKMGELKGFWGQDVAPIQEQIEALPWVKGAIVRKMWPNRLSIWVSEYQPVAFWNQNQFVTLDGIVFQLPSVRLTAKNLPYLGGPDYQSLKVIETWNQIYINLKSNNIMAKGINIDDRGAWQVQLDNDIVLKLGRGDWKSKLERFVTIYPQIDVPENKKIDYIDLRYTAGAAVGMVDR”, the protein production entry is given as “failed”. For the sequence “MNILLAGGSGLIGQELVRGMGEEHHYTVLGRDKDAIQKIFTTKASSLSWDELNTQDASRFDAVINLCGVNIAISRWTPKIKEEIISSRVQTTENLLHWILQQNAKPRFYCANAVGIYGLQENGDATDLTEDTAINWEHPKDYLSEVGIRWQQALQKAEEAGLPVTSTRFGVVLKKGKGFLGKLYPSFICGLGSTIGDGRQYLSWIDSEDLVNAYRFLLNHPEITGPVNVTSPNPCMQREFAKAFAKSLHRPLLLWTPAFIIHLLFGEMGDCLINHGQKVKPKRLLEAGFEFKWPDIEKALKHQYSAILEHHHHHH”, the protein production result was “not failed”.

Source of the values: a protein production outcome set (Wang et al. 2014).
